Assay results taken from publication PMC3538638, “On the Molecular Basis of D-Bifunctional Protein Deficiency Type III” (PLoS ONE, 2013).
Residue numbers refer to the chain shown, from its start. Numbers in names are those of the source.

B1: HsDH(E232K), patient variant of the 3R-hydroxyacyl-CoA dehydrogenase fragment of human MFE-2 (domain or fragment)
chain: MGSPLRFDGRVVLVTGAGAGLGRAYALAFAERGALVVVNDLGGDFKGVGKGSLAADKVVEEIRRRGGKAVANYDSVEEGEKVVKTALDAFGRIDVVVNNAGILRDRSFARISDEDWDIIHRVHLRGSFQVTRAAWEHMKKQKYGRIIMTSSASGIYGNFGQANYSAAKLGLLGLANSLAIEGRKSNIHCNTIAPNAGSRMTQTVMPEDLVEALKPEYVAPLVLWLCHESCEKNGGLFEVGAGWIGKLRWERTLGAIVRQKNHPMTPEAVKANWKKICDFENASKPQSIQESTGSIIEVLSKIDS
notes: Made by site-directed mutagenesis of pLWRP51::HsDH; for the limits see the note of m1; also called E232K variant; source: E. coli BL21(DE3)pLysS, pLWRP51 vector, purified (Ni-NTA, Superdex 200)
B2: HsDH(T15A), patient variant of the 3R-hydroxyacyl-CoA dehydrogenase fragment of human MFE-2 (domain or fragment)
chain: B1 chain with T15A, K232E
notes: Made by site-directed mutagenesis of pLWRP51::HsDH; for the limits see the note of m1; also called T15A variant; source: E. coli BL21(DE3)pLysS, pLWRP51 vector, purified (Ni-NTA, Superdex 200)
B3: HsDH(R248C), patient variant of the 3R-hydroxyacyl-CoA dehydrogenase fragment of human MFE-2 (domain or fragment)
chain: B1 chain with K232E, R248C
notes: Made by site-directed mutagenesis of pLWRP51::HsDH; for the limits see the note of m1; also called R248C variant; source: E. coli BL21(DE3)pLysS, pLWRP51 vector, purified (Ni-NTA, Superdex 200)
B4: HsDH(N158D), patient variant of the 3R-hydroxyacyl-CoA dehydrogenase fragment of human MFE-2 (domain or fragment)
chain: B1 chain with N158D, K232E
notes: Made by site-directed mutagenesis of pLWRP51::HsDH; for the limits see the note of m1; also called N158D variant; source: E. coli BL21(DE3)pLysS, pLWRP51 vector, purified (Ni-NTA, Superdex 200)
B5: HsDH(W249G), patient variant of the 3R-hydroxyacyl-CoA dehydrogenase fragment of human MFE-2 (domain or fragment)
chain: B1 chain with K232E, W249G
notes: Made by site-directed mutagenesis of pLWRP51::HsDH; for the limits see the note of m1; also called W249G variant; source: E. coli BL21(DE3)pLysS, pLWRP51 vector, purified (Ni-NTA, Superdex 200)
B6: wild type 3R-hydroxyacyl-CoA dehydrogenase (DH) fragment of human MFE-2 (multifunctional enzyme type 2) (domain or fragment)
chain: B1 chain with K232E
notes: 3R-hydroxyacyl-CoA dehydrogenase (DH) fragment of human MFE-2 / D-bifunctional protein; also called HsDH; native HsDH; source: E. coli BL21(DE3)pLysS, pLWRP51::HsDH, purified (Ni-NTA, Superdex 200)

Target: the molecule itself
Test: SEC; Superdex 200 10/300 GL, 20 mM PIPES/HCl pH 6.8, 150 mM NaCl, 1 mM EDTA, 5% glycerol, 1 mM NaN3, 0.3 ml/min; retention times of wild type and variants compared

Protein	binding result
B1	binds
B2	binds
B3	binds
B4	binds
B5	binds

Target: the molecule itself
Test: static light scattering (SLS); purified recombinant protein; SLS as described previously [3]; the methods name it for the native HsDH protein

Protein	stoichiometry N
B6	2
